Measured values: patent US20210371508A1

How the values were obtained:
V5-hNMES1 (human) [1] = biological target: V5-hNMES1 (human) (UniProt Q9C002); assay: IP with IgG control, lysate of 231 cells with V5-NMES1 OE pre-incubated with NM-1; western blot for NMES1; hardly any band
[2] = biological target: transferrin receptor 1 (TFRC) (human) (UniProt P02786); assay: IP with IgG control, lysate of 231 cells with V5-NMES1 OE pre-incubated with NM-1; western blot for TFRC
V5-hNMES1 (human) [3] = biological target: V5-hNMES1 (human) (UniProt Q9C002); assay: IP with IgG control, lysate of 231 cells with V5-NMES1 OE pre-incubated with isotype ctrl; western blot for NMES1; a band is visible in this control lane
[4] = biological target: transferrin receptor 1 (TFRC) (human) (UniProt P02786); assay: IP with IgG control, lysate of 231 cells with V5-NMES1 OE pre-incubated with isotype ctrl; western blot for TFRC

transferrin receptor 1 (TFRC) (human), sequence (P02786 whole entry): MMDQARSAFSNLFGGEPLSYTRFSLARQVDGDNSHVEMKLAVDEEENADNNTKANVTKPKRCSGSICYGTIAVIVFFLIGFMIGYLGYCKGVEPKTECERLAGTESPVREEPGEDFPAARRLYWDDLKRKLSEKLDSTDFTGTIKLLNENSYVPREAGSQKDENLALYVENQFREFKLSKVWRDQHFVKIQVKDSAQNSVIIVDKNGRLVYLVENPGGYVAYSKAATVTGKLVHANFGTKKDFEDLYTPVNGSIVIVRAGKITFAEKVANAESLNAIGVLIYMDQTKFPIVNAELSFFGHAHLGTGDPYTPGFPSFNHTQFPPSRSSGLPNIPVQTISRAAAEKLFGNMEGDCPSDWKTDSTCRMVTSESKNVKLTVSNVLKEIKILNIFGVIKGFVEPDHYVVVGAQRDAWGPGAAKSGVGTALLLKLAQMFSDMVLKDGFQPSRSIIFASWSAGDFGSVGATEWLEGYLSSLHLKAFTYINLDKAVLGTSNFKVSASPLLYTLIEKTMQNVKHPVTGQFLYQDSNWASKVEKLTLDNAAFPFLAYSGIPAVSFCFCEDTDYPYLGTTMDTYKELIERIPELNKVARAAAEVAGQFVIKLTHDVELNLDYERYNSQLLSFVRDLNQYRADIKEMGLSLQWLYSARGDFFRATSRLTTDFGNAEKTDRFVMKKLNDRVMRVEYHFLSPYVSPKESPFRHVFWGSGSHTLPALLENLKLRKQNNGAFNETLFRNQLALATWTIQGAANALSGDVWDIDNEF
V5-hNMES1 (human), sequence (Q9C002 whole entry): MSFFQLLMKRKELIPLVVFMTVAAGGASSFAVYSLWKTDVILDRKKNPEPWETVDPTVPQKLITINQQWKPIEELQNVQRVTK

number under the NMES1 band (band intensity, not named on the sheet) (V5-hNMES1 (human) [1]): 15.8
number under the TFRC band (band intensity, not named on the sheet) [2]: 27.4
number under the NMES1 band (band intensity, not named on the sheet) (V5-hNMES1 (human) [3]): 38.5
number under the TFRC band (band intensity, not named on the sheet) [4]: 24
Substance: isotype IgG control (antibody)
